Laboratory results as given in PMC8233210, “The archaeal triphosphate tunnel metalloenzyme SaTTM defines structural determinants for the diverse activities in the CYTH protein family” (The Journal of Biological Chemistry, 2021).

B1: Sulfolobus acidocaldarius triphosphate tunnel metalloenzyme (SaTTM) (enzyme, Sulfolobus acidocaldarius DSM 639, UniProt Q4JAT2 1-185, looked up)
chain: MSYIEREIKLRVISPSLEEIEERIRNNYTFINEEHQIDIYYNNPIRDFRKSDEALRLRNTNGKVILTYKGPKQSKETKTREEIEVEVSDLHKMDLILRKLGFIRSFQVEKIRKNYKYADFIISLDSIKELGEFIEIEGINKTEKELISFVDEFVKKHQIQYEKTIKSYLELLVEHAKKTNNSNTH
notes: SaTTM (Saci_0718), CYTH ortholog of Sulfolobus acidocaldarius DSM 639; ORF amplified from the genome and cloned NcoI/BamHI into pSA4 to give pSVA1028; No step that removes the His6 tag is described; The NcoI cloning site may have changed the residue after the first methionine; also called Saci_0718; S. acidocaldarius CYTH enzyme; source: E. coli BL21-Gold (DE3), purified (heat step 70 °C, Ni-NTA, …)

Legend:
SaTTM (Saci_0718) = target: T1, SaTTM (Saci_0718) (Sulfolobus acidocaldarius, UniProt Q4JAT2); experiment: X-ray crystal structure of the complex; type: binding; settings: 10 mM CaCl2, 5 mM PPi, pH 4.6, 4 °C; also 10 mM MgCl2 crystal without bound Mg2+; closed tunnel, active site
T1 construct: full ORF, C-terminal His6 (pSVA1028), expressed in E. coli BL21-Gold (DE3), heat step, IMAC, SEC; homodimer of 56 kDa

[1] = target: the molecule itself; experiment: SEC; analytical Superdex 200 10/300 GL, SEC buffer (200 mM NaCl, 50 mM Tris, pH 9.0), compared with standards
[2] = substrate: O=P(O)(O)OP(=O)(O)OP(=O)(O)O; experiment: malachite green phosphate release, Michaelis-Menten fit; type: biochemical, Sulfolobus acidocaldarius; settings: 2 mM MgCl2, 50 mM Tris, 200 mM NaCl, pH 8.6, 75 °C, 5 nM enzyme

Molecule | X-ray crystal structure of the complex (SaTTM (Saci_0718)) | stoichiometry N [1] | Km [2] | kcat [2]
O=P(O)(O)OP(=O)(O)O [PPi, pyrophosphate] | we determined crystal structures of SaTTM in complex with pyrophosphate | – | – | –
B1 | – | 2 | 41.0 (95% CI 29.8 to 55.4) μM | 5934 s⁻¹
